Publication PMC9482650, “Quantitative fragmentomics allow affinity mapping of interactomes” (Nature Communications, 2022)

T1: DFNB31_2, Q9P202
T1 sequence (Q9P202 274-371, limits assumed, looked up): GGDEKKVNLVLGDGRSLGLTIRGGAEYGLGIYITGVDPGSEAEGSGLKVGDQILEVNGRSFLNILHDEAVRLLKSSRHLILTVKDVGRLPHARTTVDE

T2: DFNB31_3, Q9P202
T2 sequence (Q9P202 811-907, limits assumed, looked up): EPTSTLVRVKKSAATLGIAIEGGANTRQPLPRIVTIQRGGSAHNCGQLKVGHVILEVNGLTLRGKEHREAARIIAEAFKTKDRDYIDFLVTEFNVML

T3: DLG3_3, Q92796
T3 sequence (Q92796 374-475, limits assumed, looked up): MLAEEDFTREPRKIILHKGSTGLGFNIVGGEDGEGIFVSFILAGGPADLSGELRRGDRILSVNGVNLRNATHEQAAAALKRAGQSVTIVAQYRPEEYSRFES

T4: DVL3, Q92997
T4 sequence (Q92997 244-331, limits assumed, looked up): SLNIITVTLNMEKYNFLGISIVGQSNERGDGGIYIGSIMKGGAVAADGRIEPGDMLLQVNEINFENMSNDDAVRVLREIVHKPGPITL

T5: GRIP1_5, Q9Y3R0
T5 sequence (Q9Y3R0 568-668, limits assumed, looked up): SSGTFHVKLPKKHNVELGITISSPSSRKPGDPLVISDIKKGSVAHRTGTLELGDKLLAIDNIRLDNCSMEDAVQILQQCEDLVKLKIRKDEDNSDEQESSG

T6: GRIP1_7, Q9Y3R0
T6 sequence (Q9Y3R0 999-1096, limits assumed, looked up): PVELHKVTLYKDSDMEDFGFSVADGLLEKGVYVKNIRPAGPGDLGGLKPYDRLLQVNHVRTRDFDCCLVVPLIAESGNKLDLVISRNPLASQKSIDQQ

T7: LIN7C, Q9NUP9
T7 sequence (Q9NUP9 88-185, limits assumed, looked up): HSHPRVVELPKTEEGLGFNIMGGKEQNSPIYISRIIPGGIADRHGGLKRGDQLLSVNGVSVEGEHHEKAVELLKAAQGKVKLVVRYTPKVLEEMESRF

T8: LNX2_2, Q8N448
T8 sequence (Q8N448 334-432, limits assumed, looked up): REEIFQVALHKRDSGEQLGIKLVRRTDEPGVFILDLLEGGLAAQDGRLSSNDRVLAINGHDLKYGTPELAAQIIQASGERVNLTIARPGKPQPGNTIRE

T9: LNX2_3, Q8N448
T9 sequence (Q8N448 463-564, limits assumed, looked up): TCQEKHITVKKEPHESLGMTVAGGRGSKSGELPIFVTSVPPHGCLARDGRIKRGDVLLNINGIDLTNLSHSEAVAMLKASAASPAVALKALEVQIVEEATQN

T10: MPP2, Q14168
T10 sequence (Q14168 180-250, limits assumed, looked up): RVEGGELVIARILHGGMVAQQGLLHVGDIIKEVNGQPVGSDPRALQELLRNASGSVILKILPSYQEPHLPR

T11: NHERF3_1, Q5T2W1
T11 sequence (Q5T2W1 4-100, limits assumed, looked up): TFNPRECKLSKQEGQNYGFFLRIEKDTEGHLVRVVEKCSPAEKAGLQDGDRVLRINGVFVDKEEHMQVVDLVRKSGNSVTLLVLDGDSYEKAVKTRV

T12: PTPN13_1, Q12923
T12 sequence (Q12923 1088-1188, limits assumed, looked up): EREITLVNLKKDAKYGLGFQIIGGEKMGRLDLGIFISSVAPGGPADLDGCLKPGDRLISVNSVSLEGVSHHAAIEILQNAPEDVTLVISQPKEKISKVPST

B1: SBF1, O95248 (peptide)
chain: DRIQSCLSDA
B2: NECTIN1, Q15223 (peptide)
chain: SFISKKEWYV

Experiments:
Experiment in all cases: holdup assay
Design in all cases: key: below the threshold = too weak to quantify, mostly under pKd 3.1 to 4
Settings in all cases: plain residues with an end cap or a label only (N-terminal biotin on a linker: ado-ado)
[1] = target: T1, DFNB31_2, Q9P202
[2] = target: T2, DFNB31_3, Q9P202
[3] = target: DLG1_1, Q12959
[4] = target: T3, DLG3_3, Q92796
[5] = target: T4, DVL3, Q92997
[6] = target: FRMPD3, Q5JV73
Sequence of FRMPD3, Q5JV73 (Q5JV73 12-100): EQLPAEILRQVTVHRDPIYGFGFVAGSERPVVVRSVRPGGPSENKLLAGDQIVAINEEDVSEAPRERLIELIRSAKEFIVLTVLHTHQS

[7] = target: T5, GRIP1_5, Q9Y3R0
[8] = target: T6, GRIP1_7, Q9Y3R0
[9] = target: GRIP2_6, Q9C0E4
Sequence of GRIP2_6, Q9C0E4 (Q9C0E4 648-740): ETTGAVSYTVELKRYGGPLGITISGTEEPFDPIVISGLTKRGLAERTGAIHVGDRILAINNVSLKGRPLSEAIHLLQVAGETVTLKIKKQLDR

[10] = target: IL16_3, Q14005
Sequence of IL16_3, Q14005 (Q14005 1107-1207): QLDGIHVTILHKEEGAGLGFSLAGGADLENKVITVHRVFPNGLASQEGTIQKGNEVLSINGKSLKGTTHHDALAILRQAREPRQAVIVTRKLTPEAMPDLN

[11] = target: Inadl_4, Q8NI35
Sequence of Inadl_4, Q8NI35 (Q8NI35 547-651): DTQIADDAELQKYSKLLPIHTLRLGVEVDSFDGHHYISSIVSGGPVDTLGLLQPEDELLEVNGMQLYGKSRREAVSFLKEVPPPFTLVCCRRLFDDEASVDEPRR

[12] = target: LIMK2, P53671
Sequence of LIMK2, P53671 (P53671 143-248): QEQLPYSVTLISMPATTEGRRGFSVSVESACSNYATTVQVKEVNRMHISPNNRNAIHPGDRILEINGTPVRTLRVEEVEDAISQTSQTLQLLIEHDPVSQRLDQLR

[13] = target: T7, LIN7C, Q9NUP9
[14] = target: LNX1_1, Q8TBB1
Sequence of LNX1_1, Q8TBB1 (Q8TBB1 261-371): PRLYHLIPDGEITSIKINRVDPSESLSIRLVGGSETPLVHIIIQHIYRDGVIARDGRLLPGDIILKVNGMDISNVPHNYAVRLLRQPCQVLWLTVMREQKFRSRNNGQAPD

[15] = target: T8, LNX2_2, Q8N448
[16] = target: T9, LNX2_3, Q8N448
[17] = target: MAGI1_2, Q96QZ7
Sequence of MAGI1_2, Q96QZ7 (Q96QZ7 456-580): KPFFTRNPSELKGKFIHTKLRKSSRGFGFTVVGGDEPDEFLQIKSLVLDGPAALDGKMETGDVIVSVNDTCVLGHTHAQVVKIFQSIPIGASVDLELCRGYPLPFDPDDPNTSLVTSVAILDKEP

[18] = target: MAGI2_3, Q86UL8
Sequence of MAGI2_3, Q86UL8 (Q86UL8 600-682): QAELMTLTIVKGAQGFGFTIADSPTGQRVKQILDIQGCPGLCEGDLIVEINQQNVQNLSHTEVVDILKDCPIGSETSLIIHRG

[19] = target: T10, MPP2, Q14168
[20] = target: T11, NHERF3_1, Q5T2W1
[21] = target: NHERF4_1, Q86UT5-2
Sequence of NHERF4_1, Q86UT5-2 (Q86UT5 other isoform, or with tags, fused parts or gaps): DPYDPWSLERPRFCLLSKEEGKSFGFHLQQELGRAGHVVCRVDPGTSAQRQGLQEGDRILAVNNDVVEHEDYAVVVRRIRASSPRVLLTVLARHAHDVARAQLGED

[22] = target: T12, PTPN13_1, Q12923
[23] = target: PTPN3, P26045
Sequence of PTPN3, P26045 (P26045 505-587): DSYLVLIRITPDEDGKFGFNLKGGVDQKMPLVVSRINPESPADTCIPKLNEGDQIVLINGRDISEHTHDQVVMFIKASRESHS

[24] = target: SCRIB_2, Q14160
Sequence of SCRIB_2, Q14160 (Q14160 857-960): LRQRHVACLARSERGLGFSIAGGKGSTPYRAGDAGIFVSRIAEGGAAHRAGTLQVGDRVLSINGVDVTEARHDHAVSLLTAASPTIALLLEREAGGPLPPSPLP

[25] = target: SCRIB_3, Q14160
Sequence of SCRIB_3, Q14160 (Q14160 999-1103): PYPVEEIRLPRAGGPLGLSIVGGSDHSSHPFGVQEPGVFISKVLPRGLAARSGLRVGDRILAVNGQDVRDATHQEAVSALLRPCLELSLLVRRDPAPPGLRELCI

[26] = target: TJP2_1, Q9UDY2
Sequence of TJP2_1, Q9UDY2 (Q9UDY2 24-128): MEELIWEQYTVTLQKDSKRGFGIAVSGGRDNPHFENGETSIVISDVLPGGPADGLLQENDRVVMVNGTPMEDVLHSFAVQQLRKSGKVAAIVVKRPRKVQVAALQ

| Binder | pKd [1] | pKd [2] | pKd [3] | pKd [4] | pKd [5] | pKd [6] | pKd [7] | pKd [8] | pKd [9] | pKd [10] | pKd [11] | pKd [12] | pKd [13] | pKd [14] | pKd [15] | pKd [16] | pKd [17] | pKd [18] | pKd [19] | pKd [20] | further results |
| --- | --- | --- | --- | --- | --- | --- | --- | --- | --- | --- | --- | --- | --- | --- | --- | --- | --- | --- | --- | --- | --- |
| B1 | below the threshold | 3.74 | below the threshold | below the threshold | below the threshold | below the threshold | below the threshold | below the threshold | below the threshold | below the threshold | below the threshold | below the threshold | 3.84 | 3.62 | below the threshold | below the threshold | below the threshold | below the threshold | below the threshold | below the threshold | pKd [21]: below the threshold; pKd [22]: 3.49; pKd [23]: 4.23; pKd [24]: below the threshold; pKd [25]: below the threshold; pKd [26]: below the threshold |
| B2 | below the threshold | below the threshold | 3.6 | below the threshold | 4.51 | 3.94 | below the threshold | 5.06 | 4.3 | below the threshold | below the threshold | below the threshold | below the threshold | below the threshold | 5.05 | below the threshold | 4.28 | below the threshold | 4.46 | 4.28 | pKd [21]: below the threshold; pKd [22]: below the threshold; pKd [23]: 3.96; pKd [24]: below the threshold; pKd [25]: below the threshold; pKd [26]: 4 |
